Measured values reported in PMC6044470.

Molecular target: Chaetomium thermophilum Cdc48 (Chaetomium thermophilum)
Experiment: cryo-EM structure

Substance	stoichiometry N
Ufd1/Npl4 heterodimer (UN) from Chaetomium thermophilum (complex)	1
Chaetomium thermophilum Cdc48 (enzyme)	6
